According to US6734286 (CELLTECH R AND D, dated 2004):

Molecular target: T1, Recombinant human IL-5 (human, UniProt P05113 20-134)
T1 construct: also called human interleukin-5; hIL-5
T1 sequence (looked up): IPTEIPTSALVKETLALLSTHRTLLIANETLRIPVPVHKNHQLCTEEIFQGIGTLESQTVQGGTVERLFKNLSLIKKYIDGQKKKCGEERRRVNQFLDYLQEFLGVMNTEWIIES
Assay: BIAcore; antibody captured by polyclonal anti-human Fc, recombinant human IL-5 as analyte
Procedure: Affinities of the chimeric and CDR grafted anti-IL-5 antibodies were determined using Biospecific Interaction Analysis (BIA). Antibodies were produced in CHO cells by transfection of combinations of heavy and light chain genes and purified from culture supernatants on Protein A Sepharose. […] The amount of anti-IL-5 captured for each run was approximately 1600 RU. Recombinant human IL-5 was then passed over the Sensorchip at various concentrations (0.6 to 5 µg/ml) in the above buffer. The Sensorchip was cleaned after each run with 100 mM HCl and 100 mM orthophosphoric acid to remove bound IL-5 and antibody. The sensorgrams generated were analysed using the kinetics software available with the BIAcore machine.

B1: CTIL-5-10 gH/gL6 antibody (antibody, V domains shown)
VH: EVQLVESGGGLVQPGGSLRLSCAVSGLSLTSNSVNWIRQAPGKGLEWVGLIWSNGDTDYNSAIKSRFTISRDTSKSTVYLQMNSLRAEDTAVYYCAREYYGYFDYWGQGTLVTVSS
VL: DIQMTQSPSSLSASVGDRVTITCLASEGISSYLAWYQQKPGKAPKLLIYGANSLQTGVPSRFSGSGSATDYTLTISSLQPEDFATYYCQQSYKFPNTFGQGTKVEVKR
notes: Human constant domains; also called CTIL-5-10 gH/qL6; CDR grafted 39D10
B1: binds.
